Source: the supplement of paper PMC9233669
Variants at the floor of the assay were thinned out.

Experiments:
biotinyl-Met-oxazolone = assay: self-aminoacylation, catalytic enhancement (BMO) (fold over background); higher = more active; k-Seq, kA / k0A0; sequences stand for … in GGGAAUGGAUCCACAUCUACGAAUUC…UUCACUGCAGACUUGACGAAGCUG
Summary of the method: (§1)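 Mutagenized RNA pools (0.43 μM; 21-nt variable region) were treated with 2–1250 μM of each biotinyl-aminoacyl-oxazolone. Conditions were 50 μL HEPES/NaCl/KCl/MgCl2/CaCl2 buffer, 5% acetonitrile, pH 6.9–7.0, room temperature, 90 minutes. Catalytic enhancement, the median kA relative to the uncatalyzed rate, was derived from streptavidin capture, qPCR and Illumina sequencing.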

biotinyl-Leu-oxazolone = assay: self-aminoacylation, catalytic enhancement (BLO) (fold over background); higher = more active; k-Seq, kA / k0A0; sequences stand for … in GGGAAUGGAUCCACAUCUACGAAUUC…UUCACUGCAGACUUGACGAAGCUG
Summary of the method: as §1

biotinyl-Phe-oxazolone = assay: self-aminoacylation, catalytic enhancement (BFO) (fold over background); higher = more active; k-Seq, kA / k0A0; sequences stand for … in GGGAAUGGAUCCACAUCUACGAAUUC…UUCACUGCAGACUUGACGAAGCUG
Summary of the method: as §1

biotinyl-Trp-oxazolone = assay: self-aminoacylation, catalytic enhancement (BWO) (fold over background); higher = more active; k-Seq, kA / k0A0; sequences stand for … in GGGAAUGGAUCCACAUCUACGAAUUC…UUCACUGCAGACUUGACGAAGCUG
Summary of the method: as §1

biotinyl-Val-oxazolone = assay: self-aminoacylation, catalytic enhancement (BVO) (fold over background); higher = more active; k-Seq, kA / k0A0; sequences stand for … in GGGAAUGGAUCCACAUCUACGAAUUC…UUCACUGCAGACUUGACGAAGCUG
Summary of the method: as §1

biotinyl-Ile-oxazolone = assay: self-aminoacylation, catalytic enhancement (BIO) (fold over background); higher = more active; k-Seq, kA / k0A0; sequences stand for … in GGGAAUGGAUCCACAUCUACGAAUUC…UUCACUGCAGACUUGACGAAGCUG
Summary of the method: as §1

| Sequence | self-aminoacylation (biotinyl-Met-oxazolone) | self-aminoacylation (biotinyl-Leu-oxazolone) | self-aminoacylation (biotinyl-Phe-oxazolone) | self-aminoacylation (biotinyl-Trp-oxazolone) | self-aminoacylation (biotinyl-Val-oxazolone) | self-aminoacylation (biotinyl-Ile-oxazolone) |
| --- | --- | --- | --- | --- | --- | --- |
| GCACACUUCAAGCAAUCGGUU [Fam1B.1 aminoacylation ribozyme variant] | 2.66 | 3.33 | 4.75 | 6.83 | 2.86 | 3.38 |
| GCACACUUCAAGCAUUCGGUC [Fam1B.1 aminoacylation ribozyme variant] | 2.09 | 2.17 | 4.96 | 3.5 | 2.59 | 2.57 |
| GCACACUUCCAGCAAUCGGUC [Fam1B.1 aminoacylation ribozyme variant] | 1.55 | 1.73 | 1.1 | 2.11 | 2.31 | 2.01 |
| GCCCACUUCAAGCAAUCGGUC [Fam1B.1 aminoacylation ribozyme variant] | 1.27 | 1.77 | 24.1 | 18.7 | 1.67 | 1.42 |
| GCUCACUUCAAGCAAUCGGUC [Fam1B.1 aminoacylation ribozyme variant] | 1.58 | 1.77 | 16.7 | 10.9 | 1.67 | 1.69 |
| GGACUUCAAACAAUCGGUCUG [Fam1A.1 aminoacylation ribozyme variant] | 2 | 2.75 | 122 | 47.1 | 1.88 | 2.34 |
| GGUACCCUGGUCAUCGAGUGA [Fam2.1 aminoacylation ribozyme variant] | 11.2 | 12.6 | 38.7 | 16.4 | 6.65 | 6.93 |
| GUAAUUCAAACAAUCGGUCUG [Fam1A.1 aminoacylation ribozyme variant] | 0.925 | 0.967 | 2.5 | 2.11 | 0.938 | 1.05 |
| GUACUCCAAACAAUCGGUCUG [Fam1A.1 aminoacylation ribozyme variant] | 0.967 | 0.944 | 2.05 | 1.84 | 1.04 | 1.06 |
| GUACUUCAAACAAGCGGUCUG [Fam1A.1 aminoacylation ribozyme variant] | 1.42 | 1.63 | 5.04 | 2.06 | 1.49 | 1.78 |
| GUACUUCAAACAAUCGAUCUG [Fam1A.1 aminoacylation ribozyme variant] | 0.863 | 0.862 | 1.72 | 1.64 | 0.987 | 1.18 |
| GUACUUCAAACAAUCGGUCUG [Fam1A.1 aminoacylation ribozyme variant] | 1.53 | 2.15 | 51.3 | 30.5 | 1.42 | 1.54 |
| GUACUUCAAACGAUCGGUCUG [Fam1A.1 aminoacylation ribozyme variant] | 1.13 | 1.32 | 1.38 | 1.8 | 1.08 | 1.14 |
| GUACUUCAAAGAAUCGGUCUG [Fam1A.1 aminoacylation ribozyme variant] | 1.07 | 1.46 | 3.28 | 4.9 | 1.24 | 1.26 |
| GUUACCCGGGUCAUCGAGUGA [Fam2.1 aminoacylation ribozyme variant] | 8.11 | 9.84 | 62.8 | 8.97 | 4.77 | 4.5 |
| GUUACCCUGAUCAUCGAGUGA [Fam2.1 aminoacylation ribozyme variant] | 8.85 | 9.43 | 32.3 | 11.1 | 4.23 | 3.61 |
| GUUACCCUGGACAUCGAGUGA [Fam2.1 aminoacylation ribozyme variant] | 8.05 | 9.14 | 48 | 9.84 | 4.58 | 4.6 |
| GUUACCCUGGUCACCGAGUGA [Fam2.1 aminoacylation ribozyme variant] | 11.2 | 13.1 | 79.2 | 14.8 | 6.95 | 5.31 |
| GUUACCCUGGUCAUCGAGAGA [Fam2.1 aminoacylation ribozyme variant] | 2.96 | 1.9 | 2.82 | 3.07 | 1.74 | 1.32 |
| GUUACCCUUGUCAUCGAGUGA [Fam2.1 aminoacylation ribozyme variant] | 8.39 | 8.14 | 48.1 | 10.7 | 4.44 | 4.41 |
| GUUAUCCUGGUCAUCGAGUGA [Fam2.1 aminoacylation ribozyme variant] | 10.9 | 9.81 | 16.1 | 13.1 | 5.41 | 6.24 |

| Sequence | self-aminoacylation (biotinyl-Met-oxazolone) | self-aminoacylation (biotinyl-Leu-oxazolone) | self-aminoacylation (biotinyl-Phe-oxazolone) | self-aminoacylation (biotinyl-Trp-oxazolone) | self-aminoacylation (biotinyl-Val-oxazolone) | self-aminoacylation (biotinyl-Ile-oxazolone) |
| --- | --- | --- | --- | --- | --- | --- |
| GUUCACCUAGGUCACCGGGUG [Fam2.2 aminoacylation ribozyme variant] | 3.6 | 5.53 | 28.5 | 6.73 | 3.55 | 4.06 |
| GUUCACCUAGGUCAUCCGGUG [Fam2.2 aminoacylation ribozyme variant] | 6.69 | 6.89 | 45.4 | 7.53 | 5.33 | 5.36 |
| GUUCACCUAGGUCAUCGGGCG [Fam2.2 aminoacylation ribozyme variant] | 4.01 | 5.06 | 4.6 | 4.17 | 3.11 | 2.98 |
| GUUCACCUAGGUCAUCGGGUG [Fam2.2 aminoacylation ribozyme variant] | 25.5 | 32.5 | 180 | 20.1 | 12.5 | 13.7 |
| GUUCACCUAGGUCAUCGGGUU [Fam2.2 aminoacylation ribozyme variant] | 13.5 | 17.9 | 51.7 | 9.2 | 6.82 | 7.61 |
| GUUCACCUAGGUCAUGGGGUG [Fam2.2 aminoacylation ribozyme variant] | 3.63 | 4.4 | 10.3 | 4.06 | 3.01 | 2.64 |
| GUUCACCUUGGUCAUCGGGUG [Fam2.2 aminoacylation ribozyme variant] | 5.14 | 5.74 | 37.7 | 5.93 | 4.34 | 3.45 |
| GUUCCCCUAGGUCAUCGGGUG [Fam2.2 aminoacylation ribozyme variant] | 13.3 | 14.2 | 94.8 | 12.1 | 8.06 | 7.72 |
| GUUGCCCUGGUCAUCGAGUGA [Fam2.1 aminoacylation ribozyme variant] | 54.2 | 57.5 | 382 | 58.8 | 23.4 | 19.1 |
| UACUUUGCUAAUAGUCGCAAG [Fam3.1 aminoacylation ribozyme variant] | 1.66 | 1.86 | 2.71 | 1.46 | 1.33 | 1.75 |
| UAGUUUGCGAAUAGUCGCAAG [Fam3.1 aminoacylation ribozyme variant] | 1.68 | 1.75 | 2.28 | 1.73 | 1.1 | 1.82 |
| UAGUUUGCUAAUAGUCGCAGG [Fam3.1 aminoacylation ribozyme variant] | 1.2 | 1.31 | 2.23 | 2.22 | 1.34 | 1.72 |
| UAUACCCUGGUCAUCGAGUGA [Fam2.1 aminoacylation ribozyme variant] | 14.8 | 15.5 | 25.2 | 16 | 7.52 | 7.17 |
| UCACACUUCAAGCAAUCCGUC [Fam1B.1 aminoacylation ribozyme variant] | 0.667 | 0.591 | 1.15 | 1.01 | 1.25 | 0.955 |
| UCACACUUCAAGCAAUCGCUC [Fam1B.1 aminoacylation ribozyme variant] | 1.46 | 1.3 | 1.94 | 1.45 | 1.32 | 1.43 |
| UCACACUUCAAGCAAUCGGUG [Fam1B.1 aminoacylation ribozyme variant] | 5.17 | 7.95 | 29 | 6.38 | 3.95 | 3.81 |
| UCACACUUCAAGCACUCGGUC [Fam1B.1 aminoacylation ribozyme variant] | 0.873 | 0.927 | 0.873 | 0.771 | 1.32 | 0.94 |
| UCACACUUCAAGCAGUCGGUC [Fam1B.1 aminoacylation ribozyme variant] | 0.968 | 0.879 | 1.06 | 0.901 | 0.972 | 0.827 |
| UCACACUUCAAGCUAUCGGUC [Fam1B.1 aminoacylation ribozyme variant] | 0.703 | 0.749 | 1.11 | 0.724 | 1.02 | 0.939 |
| UCACAUUUCAAGCAAUCGGUC [Fam1B.1 aminoacylation ribozyme variant] | 0.73 | 0.847 | 2.47 | 1.56 | 1.07 | 1.04 |
| UCGCACUUCAAGCAAUCGGUC [Fam1B.1 aminoacylation ribozyme variant] | 1.44 | 2.14 | 55.1 | 29.8 | 1.61 | 1.38 |
